Where a SMILES comes first, the peptide text is derived from it. Bridges are numbered along the chain shown (N, C = ends). Where no end group is shown, it is not given here. PEO12 = PEO12, 0.6 kDa, monodispersed; PEO24 = PEO24, 1.2 kDa, monodispersed
Tests used:
Recombinant human NEP = Recombinant human NEP (Homo sapiens, UniProt P08473); experiment: in vitro NEP cleavage assay (disappearance of non-cleaved CNP variant)
Experimental: To determine the effects of amino acid substitutions, amino acid extensions, backbone modifications, side chain modifications and PEGylation on the susceptibility of CNP variants to neutral endopeptidase (NEP) cleavage, peptide cleavage assays were carried out using an in vitro assay that monitored disappearance of the non-cleaved CNP variant.
Recombinant human NEP (1 ug/mL final concentration) was added to 100 uM CNP variant diluted in 0.1 M Tris, pH 7. The reaction mixture was incubated at 37° C. for various periods of time, and the reaction was quenched with EDTA (10 mM final) followed by heat denaturation. The reaction mixture was reduced and then the reaction products were analyzed using HPLC and mass spectroscopy. The half-life of the CNP variant was calculated based on the disappearance of intact CNP variant over time.

[1] = biological target: T1, NPR-B (natriuretic peptide receptor B), murine, expressed endogenously on NIH3T3 cells (murine, UniProt Q6VVW5 17-1047); experiment: cell-based or functional assay
T1 sequence (looked up): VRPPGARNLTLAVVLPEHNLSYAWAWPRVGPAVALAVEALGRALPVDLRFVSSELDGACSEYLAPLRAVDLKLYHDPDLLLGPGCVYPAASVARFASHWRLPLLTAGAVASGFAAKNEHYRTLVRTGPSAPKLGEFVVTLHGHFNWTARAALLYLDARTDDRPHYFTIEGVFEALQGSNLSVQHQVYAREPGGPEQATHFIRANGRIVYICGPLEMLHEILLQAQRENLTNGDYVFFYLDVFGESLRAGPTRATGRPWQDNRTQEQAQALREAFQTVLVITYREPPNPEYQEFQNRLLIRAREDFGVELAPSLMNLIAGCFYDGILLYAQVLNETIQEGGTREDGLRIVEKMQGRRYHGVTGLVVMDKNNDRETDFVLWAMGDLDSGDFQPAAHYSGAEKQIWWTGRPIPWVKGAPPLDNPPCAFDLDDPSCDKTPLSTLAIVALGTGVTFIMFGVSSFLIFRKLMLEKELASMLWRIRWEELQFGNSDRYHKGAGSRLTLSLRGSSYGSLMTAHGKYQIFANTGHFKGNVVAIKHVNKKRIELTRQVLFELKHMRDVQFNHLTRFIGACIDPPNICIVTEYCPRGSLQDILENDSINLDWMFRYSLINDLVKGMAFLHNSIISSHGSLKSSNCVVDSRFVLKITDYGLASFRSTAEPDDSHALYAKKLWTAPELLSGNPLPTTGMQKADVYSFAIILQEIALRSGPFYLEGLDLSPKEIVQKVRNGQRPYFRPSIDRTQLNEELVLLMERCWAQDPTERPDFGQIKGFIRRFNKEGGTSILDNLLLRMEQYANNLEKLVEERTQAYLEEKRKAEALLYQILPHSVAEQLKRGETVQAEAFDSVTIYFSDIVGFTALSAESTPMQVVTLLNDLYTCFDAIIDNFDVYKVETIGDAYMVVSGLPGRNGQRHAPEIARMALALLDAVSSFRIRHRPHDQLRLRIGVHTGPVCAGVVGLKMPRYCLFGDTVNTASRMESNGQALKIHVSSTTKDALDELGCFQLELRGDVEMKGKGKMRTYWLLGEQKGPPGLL

Chain of Recombinant human NEP (P08473 whole entry): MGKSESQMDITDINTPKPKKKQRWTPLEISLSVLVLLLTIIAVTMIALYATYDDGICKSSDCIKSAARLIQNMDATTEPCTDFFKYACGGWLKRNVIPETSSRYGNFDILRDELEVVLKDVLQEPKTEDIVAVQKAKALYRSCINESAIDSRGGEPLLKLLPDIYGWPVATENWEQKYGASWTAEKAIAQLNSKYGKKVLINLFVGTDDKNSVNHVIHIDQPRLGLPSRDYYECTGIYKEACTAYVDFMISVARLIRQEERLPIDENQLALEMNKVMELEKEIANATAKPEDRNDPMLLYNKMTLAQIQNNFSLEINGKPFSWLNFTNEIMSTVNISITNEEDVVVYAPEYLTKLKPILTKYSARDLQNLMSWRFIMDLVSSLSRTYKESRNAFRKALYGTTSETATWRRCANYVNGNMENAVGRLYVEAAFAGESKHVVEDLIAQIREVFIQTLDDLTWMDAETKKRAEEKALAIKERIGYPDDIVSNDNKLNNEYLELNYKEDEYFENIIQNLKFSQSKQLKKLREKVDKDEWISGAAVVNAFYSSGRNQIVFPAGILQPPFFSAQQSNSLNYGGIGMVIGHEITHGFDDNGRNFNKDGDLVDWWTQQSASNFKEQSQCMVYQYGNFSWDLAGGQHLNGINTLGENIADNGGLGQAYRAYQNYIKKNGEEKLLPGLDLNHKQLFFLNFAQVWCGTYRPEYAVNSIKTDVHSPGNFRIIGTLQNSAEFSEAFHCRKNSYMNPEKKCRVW

Molecule	resistance to NEP cleavage (in words) (Recombinant human NEP)	cGMP response rel. to 1 uM CNP22; 10 nM peptide, NIH3T3 cells [1]	cGMP response rel. to 1 uM CNP22; 1 uM peptide, NIH3T3 cells [1]
CC[C@H](C)[C@@H]1NC(=O)[C@H](CCCNC(=N)N)NC(=O)[C@H](CC(=O)O)NC(=O)[C@H](CC(C)C)NC(=O)[C@H](CCCCN)NC(=O)[C@H](CC(C)C)NC(=O)CNC(=O)[C@H](Cc2ccccc2)NC(=O)[C@@H](NC(=O)CNC(=O)[C@H](CCCNC(=N)N)NC(=O)[C@H](CO)NC(=O)[C@H](CC(C)C)NC(=O)CNC(=O)[C@@H](N)CCCNC(=N)N)CSSC[C@@H](C(=O)O)NC(=O)CNC(=O)[C@H](CC(C)C)NC(=O)CNC(=O)[C@H](CO)NC(=O)[C@H](CCSC)NC(=O)[C@H](CO)NC(=O)CNC1=O [Analog AZ] (H-RGLSRGCFGLKLDRIGSMSGLGC-OH; disulfide 7-23)	most resistant to NEP degradation	–	–
CC[C@H](C)[C@@H]1NC(=O)[C@H](CCCNC(=N)N)NC(=O)[C@H](CC(=O)O)NC(=O)[C@H](CC(C)C)NC(=O)[C@H](CCCCN)NC(=O)[C@H](CC(C)C)NC(=O)CNC(=O)[C@H](Cc2ccccc2)NC(=O)[C@@H](NC(=O)CNC(=O)[C@H](CCCNC(=N)N)NC(=O)[C@H](CO)NC(=O)[C@H](CC(C)C)NC(=O)CNC(=O)[C@H](CCCNC(=N)N)NC(=O)[C@H](CCCNC(=N)N)NC(=O)[C@H](CC(N)=O)NC(=O)[C@H](C)NC(=O)CN)CSSC[C@@H](C(=O)O)NC(=O)CNC(=O)[C@H](CC(C)C)NC(=O)CNC(=O)[C@H](CO)NC(=O)[C@H](CCSC)NC(=O)[C@H](CO)NC(=O)CNC1=O [Analog AY] (H-GANRRGLSRGCFGLKLDRIGSMSGLGC-OH; disulfide 11-27)	same lability to NEP hydrolysis as CNP22	–	–
{PEG 20 kDa}-GLSKGCFGLKLDRIGSMSGLGC (ends and bridges not checked) [PEG20K-CNP22]	–	0 rel. to 1 uM CNP22 (100)	15 rel. to 1 uM CNP22 (100)
{PEG 5 kDa}-GLSKGCFGLKLDRIGSMSGLGC (ends and bridges not checked; also: PEG polydispersed) [PEG5K-CNP22]	–	8 rel. to 1 uM CNP22 (100)	20 rel. to 1 uM CNP22 (100)
{PEG 2 kDa}-GLSKGCFGLKLDRIGSMSGLGC (ends and bridges not checked) [PEG2K-CNP22]	–	6 rel. to 1 uM CNP22 (100)	32 rel. to 1 uM CNP22 (100)
{PEO4‑(PEO12)3 (branched)}-GLSKGCFGLKLDRIGSMSGLGC (ends and bridges not checked) [PEO4-(PEO12)3 (branched)-CNP22]	–	17 rel. to 1 uM CNP22 (100)	52 rel. to 1 uM CNP22 (100)
PEO24-GLSKGCFGLKLDRIGSMSGLGC (ends and bridges not checked) [PEO24-CNP22]	–	8 rel. to 1 uM CNP22 (100)	46 rel. to 1 uM CNP22 (100)
{PEG 1 kDa}-GLSKGCFGLKLDRIGSMSGLGC (ends and bridges not checked; also: PEG polydispersed) [PEG1K-CNP22]	–	15 rel. to 1 uM CNP22 (100)	68 rel. to 1 uM CNP22 (100)
PEO12-GLSKGCFGLKLDRIGSMSGLGC (ends and bridges not checked) [PEO12-CNP22]	–	12 rel. to 1 uM CNP22 (100)	57 rel. to 1 uM CNP22 (100)
GLSKGCFGLKLDRIGSMSGLGC (not fully specified (N-terminus); ends and bridges not checked) [(PEO12)-Biotin-CNP22]	–	19 rel. to 1 uM CNP22 (100)	81 rel. to 1 uM CNP22 (100)
PEO24-GLSRGCFGLKLDRIGSMSGLGC (ends and bridges not checked) [PEO24-CNP22, K4R]	–	15 rel. to 1 uM CNP22 (100)	56 rel. to 1 uM CNP22 (100)
PEO12-GLSRGCFGLKLDRIGSMSGLGC (ends and bridges not checked) [PEO12-CNP22, K4R]	–	13 rel. to 1 uM CNP22 (100)	44 rel. to 1 uM CNP22 (100)
PEG2K-CFGLKLDRIGSMSGLGC (ends and bridges not checked) [PEG2K-CNP17]	–	5 rel. to 1 uM CNP22 (100)	50 rel. to 1 uM CNP22 (100)
PEO24-RGLSRGCFGLKLDRIGSMSGLGC (ends and bridges not checked) [PEO24-R-CNP22, K4R]	–	15 rel. to 1 uM CNP22 (100)	75 rel. to 1 uM CNP22 (100)
PEO12-RGLSRGCFGLKLDRIGSMSGLGC (ends and bridges not checked) [PEO12-R-CNP22, K4R]	–	23 rel. to 1 uM CNP22 (100)	93 rel. to 1 uM CNP22 (100)
PEO24-ERGLSRGCFGLKLDRIGSMSGLGC (ends and bridges not checked) [PEO24-ER-CNP22, K4R]	–	6 rel. to 1 uM CNP22 (100)	60 rel. to 1 uM CNP22 (100)
PEO12-ERGLSRGCFGLKLDRIGSMSGLGC (ends and bridges not checked) [PEO12-ER-CNP22, K4R]	–	20 rel. to 1 uM CNP22 (100)	92 rel. to 1 uM CNP22 (100)
PEG2K-GANRRGLSRGCFGLKLDRIGSMSGLGC (ends and bridges not checked) [PEG2K-GANRR-CNP22, K4R]	–	15 rel. to 1 uM CNP22 (100)	45 rel. to 1 uM CNP22 (100)
PEO24-GANRRGLSRGCFGLKLDRIGSMSGLGC (ends and bridges not checked) [PEO24-GANRR-CNP22(K4R)]	–	28 rel. to 1 uM CNP22 (100)	82 rel. to 1 uM CNP22 (100)
PEG1K-GANRRGLSRGCFGLKLDRIGSMSGLGC (ends and bridges not checked) [PEG1K-GANRR-CNP22(K4R)]	–	15 rel. to 1 uM CNP22 (100)	56 rel. to 1 uM CNP22 (100)
PEO12-GANRRGLSRGCFGLKLDRIGSMSGLGC (ends and bridges not checked) [PEO12-GANRR-CNP22(K4R)]	–	40 rel. to 1 uM CNP22 (100)	99 rel. to 1 uM CNP22 (100)
PEO24-GANQQGLSRGCFGLKLDRIGSMSGLGC (ends and bridges not checked) [PEO24-GANQQ-CNP22, K4R]	–	16 rel. to 1 uM CNP22 (100)	73 rel. to 1 uM CNP22 (100)
PEO12-GANQQGLSRGCFGLKLDRIGSMSGLGC (ends and bridges not checked) [PEO12-GANQQ-CNP22, K4R]	–	30 rel. to 1 uM CNP22 (100)	78 rel. to 1 uM CNP22 (100)
PEO24-GANSSGLSRGCFGLKLDRIGSMSGLGC (ends and bridges not checked) [PEO24-GANSS-CNP22, K4R]	–	8 rel. to 1 uM CNP22 (100)	46 rel. to 1 uM CNP22 (100)
PEO12-GANSSGLSRGCFGLKLDRIGSMSGLGC (ends and bridges not checked) [PEO12-GANSS-CNP22, K4R]	–	8 rel. to 1 uM CNP22 (100)	52 rel. to 1 uM CNP22 (100)

— patent publication USRE48267E1, “Variants of C-type natriuretic peptide” (priority 2009, dated 2020)
